The results in this text go back to patent US20240301086A1 (APTEVO RESEARCH AND DEVELOPMENT, published 2024).

For assay [1], the target named is T1, Full-length cynomolgus monkey PSMA (TSC308), on cells (cynomolgus monkey, UniProt Q04609 1-750 (human entry)).
T1 construct: also called cyno PSMA; CHOK1SV/cynoPSMA
T1 chain: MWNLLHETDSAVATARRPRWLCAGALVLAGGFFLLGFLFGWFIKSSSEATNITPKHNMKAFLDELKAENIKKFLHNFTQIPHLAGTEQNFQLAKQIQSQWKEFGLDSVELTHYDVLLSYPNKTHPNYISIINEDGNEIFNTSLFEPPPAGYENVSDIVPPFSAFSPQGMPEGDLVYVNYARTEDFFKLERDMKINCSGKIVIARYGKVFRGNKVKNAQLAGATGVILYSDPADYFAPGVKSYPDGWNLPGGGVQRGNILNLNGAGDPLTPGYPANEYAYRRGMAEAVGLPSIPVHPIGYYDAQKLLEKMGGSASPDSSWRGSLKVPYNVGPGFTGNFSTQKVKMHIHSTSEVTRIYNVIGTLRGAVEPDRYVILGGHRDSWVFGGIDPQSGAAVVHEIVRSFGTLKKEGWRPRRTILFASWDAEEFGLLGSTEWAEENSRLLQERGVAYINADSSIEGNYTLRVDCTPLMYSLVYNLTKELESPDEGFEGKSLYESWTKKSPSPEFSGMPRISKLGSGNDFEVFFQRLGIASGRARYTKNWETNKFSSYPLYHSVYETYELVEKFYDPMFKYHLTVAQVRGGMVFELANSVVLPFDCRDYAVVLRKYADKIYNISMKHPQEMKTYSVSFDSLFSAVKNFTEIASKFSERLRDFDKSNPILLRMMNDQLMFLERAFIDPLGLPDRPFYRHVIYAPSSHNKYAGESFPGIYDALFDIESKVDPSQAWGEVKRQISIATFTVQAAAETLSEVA
The assay is described as follows: cell binding on CHOK1SV/cynoPSMA transfectants, MSD electrochemiluminescence (ECL), SULFO-TAG goat anti-human IgG. As to the method:
(§1) To measure the relative binding activity of humanized PSMA-binding domain variants, constructs were tested in cell binding assays on CHOK1SV cells transfected with human or cynomolgus PSMA. The generation of CHOK1SV/huPSMA cells was described earlier; CHOK1SV/cynoPSMA cells were generated using the same method. Bivalent PSMA-binding domains variants in scFv-Fc format (constructs PSMA01019, PSMA01020, PSMA01021, PSMA01023, PSMA01024 and PSMA01025) were tested in these assays.
(§2) Binding studies on CHOK1SV transfectants were performed in live cell-based ELISA using electrochemiluminescence (Meso Scale Discovery). CHOK1SV cells were washed and seeded at 50,000 cells/well in 1× Hank's Balanced Salt Solution (HBSS) on 96-well Multi-Array High Bind plates (Meso Scale Discovery) and incubated at 37° C. for one hour. Following a blocking step in PBS buffer with 20% FBS, serial dilutions of PSMA-binding constructs (from 0.002 to 100 nM) were added in PBS buffer with 10% FBS and incubated at room temperature for one hour. Plates were washed with PBS and the specific binding levels were detected by SULFO TAG-labeled goat anti-human IgG antibody (Meso Scale Discovery #R32AJ). Following an hour incubation and wash steps, 150 μL/well surfactant free 1× Read Buffer T were added and samples were analyzed on MSD Sector Imager (Meso Scale Discovery). Resulting electrochemiluminescence (ECL) values versus concentrations were plotted and nonlinear regression analysis to determine EC50 values was performed in GraphPad Prism 7® graphing and statistics software.

For assay [2], the target named is T2, Human PSMA ECD-AFH (TSC033), recombinant dimeric PSMA ECD (human, UniProt Q04609 44-750).
T2 construct: SEC-purified dimer; also called HuPSMA-AFH; Avi-His-Human PSMA ECD
The assay is described as follows: SPR (Biacore T200), scFv-Fc captured on anti-human IgG, dimeric PSMA ECD as analyte, 1:1 fit. How it is done: Mouse anti-human IgG (GE, BR-1008-39) at 25 μg/ml in 10 mM sodium acetate pH 5.0 was immobilized at a density of ˜2,000-4,000 response units (RU) onto each flow cell of a CM5 research-grade sensor chip (GE) by standard amine coupling chemistry. Each anti-PSMA protein at approximately 40 nM in dPBS with 0.2% BSA buffer was captured in a flow cell with the immobilized anti-human IgG at a flow rate of […] for up to 30 seconds, leaving one flow cell surface unmodified as the reference. Using a multi-cycle kinetics mode, a buffer blank and […] different concentrations of ECD ranging from 1 nM to 243 nM were sequentially injected through each flow cell at 30 μL/min with association times varying from 300-600 seconds and dissociation times varying from 600-1200 seconds. Regeneration was achieved by injection of 3 M MgCl₂ at a flow rate of 30 μL/min for up to 40 seconds followed by dPBS with 0.2% BSA buffer stabilization for 1 min.
Sensorgrams obtained from kinetic SPR measurements were analyzed using the double subtraction method. The signal from the reference flow cell was subtracted from the analyte binding response obtained from flow cells with captured ligands. The buffer blank response was then subtracted from analyte binding responses and the final double-referenced data were analyzed with Biacore T200 Evaluation software (2.0, GE), globally fitting data to derive kinetic parameters. All sensorgrams were fitted using a simple one-to-one binding model.
(In SPR one partner is held on a chip, and binding of the other changes the refractive index at the surface.)

In assay [3] the target is T3, Full-length Human PSMA (TSC435), on cells (human, UniProt Q04609 1-750).
T3 construct: also called CHOK1SV/huPSMA; PSMA on C4-2B, 22RV1, LNCaP, MDA-PCa-2b cells
The assay is described as follows: cell binding on CHOK1SV/humanPSMA transfectants, MSD electrochemiluminescence (ECL), SULFO-TAG goat anti-human IgG. How it is done:
as §1, §2

Assay [4] concerns the target T4, human CD3ε in the TCR/CD3 complex on Jurkat cells (human, UniProt P07766 23-207).
T4 construct: whole, on cells; On the cells it stands in the whole TCR/CD3 complex; also called CD3 (+) cells; CD3-expressing Jurkat cells
The assay is described as follows: flow cytometry on Jurkat cells, PE goat anti-human IgG Fc secondary, MFI (median). In general terms: In flow cytometry, cells or beads pass a laser one at a time.

Assay [5] has as its target T3, Full-length Human PSMA (TSC435), on …. The assay is described as follows: flow cytometry on C4-2B cells, PE goat anti-human IgG Fc secondary, MFI (median).

T4 sequence (P07766 23-207, one chain of several): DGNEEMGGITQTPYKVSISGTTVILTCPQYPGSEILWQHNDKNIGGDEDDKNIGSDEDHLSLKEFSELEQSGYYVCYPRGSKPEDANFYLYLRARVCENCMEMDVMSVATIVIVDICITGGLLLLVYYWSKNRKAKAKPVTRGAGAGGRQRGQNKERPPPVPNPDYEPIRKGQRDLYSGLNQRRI
T2 sequence (Q04609 other isoform, or with tags, fused parts or gaps): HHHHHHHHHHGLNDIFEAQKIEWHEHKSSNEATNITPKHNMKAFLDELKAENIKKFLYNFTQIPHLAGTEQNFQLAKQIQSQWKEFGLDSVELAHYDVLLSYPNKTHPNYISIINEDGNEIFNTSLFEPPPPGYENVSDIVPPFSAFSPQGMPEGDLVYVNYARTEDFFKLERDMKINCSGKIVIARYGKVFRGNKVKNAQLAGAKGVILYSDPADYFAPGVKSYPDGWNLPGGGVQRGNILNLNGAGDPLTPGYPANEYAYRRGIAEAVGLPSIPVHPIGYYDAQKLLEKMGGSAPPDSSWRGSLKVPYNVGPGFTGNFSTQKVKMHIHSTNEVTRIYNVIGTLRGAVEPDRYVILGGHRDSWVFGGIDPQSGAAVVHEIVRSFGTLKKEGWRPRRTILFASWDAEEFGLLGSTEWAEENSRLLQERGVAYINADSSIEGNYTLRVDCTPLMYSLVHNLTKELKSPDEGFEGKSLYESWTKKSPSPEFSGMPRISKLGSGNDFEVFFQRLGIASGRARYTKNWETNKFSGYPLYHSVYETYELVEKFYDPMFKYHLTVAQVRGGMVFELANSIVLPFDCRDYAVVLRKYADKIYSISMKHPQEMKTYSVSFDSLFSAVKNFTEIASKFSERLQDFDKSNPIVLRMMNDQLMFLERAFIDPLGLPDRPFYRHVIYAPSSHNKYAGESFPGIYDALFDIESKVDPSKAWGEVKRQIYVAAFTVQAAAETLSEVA

B1: PSMA01020 Anti-PSMA scFv-Fc (Fc fusion)
chain: DIQMTQSPSTLSASVGDRVTITCRASKSISKYLAWYQQKPGKAPKLLIHSGSSLESGVPSRFSGSGSGTEFTLTISSLQPDDFATYYCQQHIEYPWTFGQGTKVEIKGGGGSGGGGSGGGGSGGGGSEVQLLESGGGLVQPGGSLRLSCAASGYTFTDYYIHWVRQAPGKGLEWIGSFNPYNDYTSYADSVKGRATLSVDKSKNTAYLQMNSLRAEDTAVYYCARSDGYYDAMDYWGQGTLVTVSSSEPKSSDKTHTCPPCPAPEAAGAPSVFLFPPKPKDTLMISRTPEVTCVVVDVSHEDPEVKFNWYVDGVEVHNAKTKPREEQYNSTYRVVSVLTVLHQDWLNGKEYKCAVSNKALPAPIEKTISKAKGQPREPQVYTLPPSRDELTKNQVSLTCLVKGFYPSDIAVEWESNGQPENNYKTTPPVLDSDGSFFLYSKLTVDKSRWQQGNVFSCSVMHEALHNHYTQKSLSLSPGK
notes: Monospecific, bivalent scFv-Fc, VL-VH
As a reminder, the EC50 is the concentration at which the effect is half-maximal. One may read the Kd as the free concentration of one partner at which half of the binding sites on the other are occupied at equilibrium, for simple one-to-one binding. The term koff denotes the rate constant with which the complex falls apart. The term kon denotes the second-order rate constant of association. Consider B1, for which the 50% effective concentration (EC50) in assay [1] was determined as 8 nM. In assay [2], the Kd was determined as 16 nM, the koff came to 0.00019 s⁻¹ and the kon was found to be 12000 M⁻¹ s⁻¹. In assay [3], this molecule registered an EC50 of 4 nM.

B2: PSMA01026 Anti PSMA scFv-Fc; Anti CD3 scFv-Fc (bispecific antibody)
chain 1: DIQMTQSPSTLSASVGDRVTITCRASKSISKYLAWYQQKPGKAPKLLIHSGSSLESGVPSRFSGSGSGTEFTLTISSLQPDDFATYYCQQHIEYPWTFGQGTKVEIKGGGGSGGGGSGGGGSGGGGSQVQLVQSGAEVKKPGASVKVSCKASGYTFTDYYMHWVRQAPGQGLEWMGYFNPYNDYTRYAQKFQGRVTMTRDTSTSTVYMELSSLRSEDTAVYYCARSDGYYDAMDYWGQGTTVTVEPKSSDKTHTCPPCPAPPAAAPSVFLFPPKPKDTLMISRTPEVTCVVVDVSHEDPEVKFNWYVDGVEVHNAKTKPREEQYNSTYRVVSVLTVLHQDWLNGKEYKCAVSNKALPAPIEKTISKAKGQPREPQVYTLPPSRDELTKNQVSLWCLVKGFYPSDIAVEWESNGQPENNYKTTPPVLDSDGSFFLYSKLTVDKSRWQQGNVFSCSVMHEALHNHYTQKSLSLSPG
chain 2: QVQLVQSGAEVKKPGASVKVSCKASGYTFTRSTMHWVRQAPGQGLEWIGYINPSSAYTNYAQKFQGRVTLTADKSTSTAYMELSSLRSEDTAVYYCASPQVHYDYNGFPYWGQGTLVTVSSGGGGSGGGGSGGGGSGGGGSDIQMTQSPSSLSASVGDRVTITCRASSSVSYMNWYQQKPGKAPKRWIYDSSKLASGVPSRFSGSGSGTDFTLTISSLQPEDFATYYCQQWSRNPPTFGQGTKVEIKEPKSSDKTHTCPPCPAPPAAAPSVFLFPPKPKDTLMISRTPEVTCVVVDVSHEDPEVKFNWYVDGVEVHNAKTKPREEQYNSTYRVVSVLTVLHQDWLNGKEYKCAVSNKALPAPIEKTISKAKGQPREPQVYTLPPSRDELTKNQVSLSCAVKGFYPSDIAVEWESNGQPENNYKTTPPVLDSDGSFFLVSKLTVDKSRWQQGNVFSCSVMHEALHNRFTQKSLSLSPG
As for B2, the 50% effective concentration (EC50) in assay [4] came to 26 nM; in assay [5] it was 23 nM.

B3: PSMA01070 Anti PSMA scFv-Fc; Anti CD3 scFv-Fc (bispecific antibody)
chain 1: QVQLVQSGAEVKKPGASVKVSCKASGYTFTDYYMHWVRQAPGQGLEWMGYFNPYNDYTRYAQKFQGRVTMTRDTSTSTVYMELSSLRSEDTAVYYCARSDGYYDAMDYWGQGTTVTVSSGGGGSGGGGSGGGGSGGGGSDIQMTQSPSSLSASVGDRVTITCRASKSISKYLAWYQQKPGKAPKLLIHSGSSLESGVPSRFSGSGSGTEFTLTISSLQPDDFATYYCQQHIEYPWTFGQGTKVEIKEPKSSDKTHTCPPCPAPPAAAPSVFLFPPKPKDTLMISRTPEVTCVVVDVSHEDPEVKFNWYVDGVEVHNAKTKPREEQYNSTYRVVSVLTVLHQDWLNGKEYKCAVSNKALPAPIEKTISKAKGQPREPQVYTLPPSRDELTKNQVSLWCLVKGFYPSDIAVEWESNGQPENNYKTTPPVLDSDGSFFLYSKLTVDKSRWQQGNVFSCSVMHEALHNHYTQKSLSLSPG
chain 2: B2 chain 2
Take B3: the concentration giving a half-maximal response (EC50) in assay [4] is 52 nM; in assay [5] it was 30 nM.

B4: PSMA01072 Anti PSMA scFv x Anti CD3 scFv ADAPTIR (bispecific antibody)
chain: QVQLVQSGAEVKKPGASVKVSCKASGYTFTDYYMHWVRQAPGQGLEWMGYFNPYNDYTRYAQKFQGRVTMTRDTSTSTVYMELSSLRSEDTAVYYCARSDGYYDAMDYWGQGTTVTVSSGGGGSGGGGSGGGGSGGGGSDIQMTQSPSSLSASVGDRVTITCRASKSISKYLAWYQQKPGKAPKLLIHSGSSLESGVPSRFSGSGSGTEFTLTISSLQPDDFATYYCQQHIEYPWTFGQGTKVEIKEPKSSDKTHTCPPCPAPPAAAPSVFLFPPKPKDTLMISRTPEVTCVVVDVSHEDPEVKFNWYVDGVEVHNAKTKPREEQYNSTYRVVSVLTVLHQDWLNGKEYKCAVSNKALPAPIEKTISKAKGQPREPQVYTLPPSRDELTKNQVSLTCLVKGFYPSDIAVEWESNGQPENNYKTTPPVLDSDGSFFLYSKLTVDKSRWQQGNVFSCSVMHEALHNHYTQKSLSLSPGGGGSPSQVQLVQSGAEVKKPGASVKVSCKASGYTFTRSTMHWVRQAPGQGLEWIGYINPSSAYTNYAQKFQGRVTLTADKSTSTAYMELSSLRSEDTAVYYCASPQVHYDYNGFPYWGQGTLVTVSSGGGGSGGGGSGGGGSGGGGSDIQMTQSPSSLSASVGDRVTITCRASSSVSYMNWYQQKPGKAPKRWIYDSSKLASGVPSRFSGSGSGTDFTLTISSLQPEDFATYYCQQWSRNPPTFGQGTKVEIKRS
notes: also called PSMA1072
On to B4, for which the EC50 in assay [4] and in assay [5] was 1 nM in each case.
